# Assay results published in patent US20110183922A1 (UNIVERSITY OF MIAMI, published 2011).
# Biological target: AChE of primary quail muscle cells (quail)
# Assay: cell-based or functional assay
row,Binder,"tetrameric G4 AChE activity in the medium (velocity sedimentation, 10 uM peptide overnight) [fold]"
1,CCLLTPPPPPLFPPPFF [ColQ PRAD peptide (17 amino acid ColQ PRAD polypeptide)],> 2

# Biological target: AChE expressed in COS cells (human and/or mouse AChE) (human and/or mouse)
# Assay: cell-based or functional assay
row,Binder,G4 AChE level
1,CCLLTPPPPPLFPPPFFKDEL [ColQ PRAD-KDEL peptide],2.37
2,KRSVNKCCLLTPPPPPLFPPPFFKDEL [SEQ ID NO: 9],2.37
3,VNKCCLLTPPPPPLFPPPFFKDEL [SEQ ID NO: 6],2.26
4,KRSVNKCCLLTPPPPPLFPPPFFTETNILKDEL [SEQ ID NO: 11],2.14
5,VNKCCLLTPPPPPLFPPPFFTETLDEL [SEQ ID NO: 8],2.17
